The results in this text go back to US20240409617A1.

The target of the experiment is S1. Nature of the experiment: BLI.

As usually defined, the Kd is the equilibrium constant for the complex coming apart. CR3022 IgG registered a Kd of less than 1 pM.
